Results from paper PMC5040961.

Biological target: T1, FLAG-tagged Lgl1 (Lethal giant larvae 1), Q80Y17
T1 chain: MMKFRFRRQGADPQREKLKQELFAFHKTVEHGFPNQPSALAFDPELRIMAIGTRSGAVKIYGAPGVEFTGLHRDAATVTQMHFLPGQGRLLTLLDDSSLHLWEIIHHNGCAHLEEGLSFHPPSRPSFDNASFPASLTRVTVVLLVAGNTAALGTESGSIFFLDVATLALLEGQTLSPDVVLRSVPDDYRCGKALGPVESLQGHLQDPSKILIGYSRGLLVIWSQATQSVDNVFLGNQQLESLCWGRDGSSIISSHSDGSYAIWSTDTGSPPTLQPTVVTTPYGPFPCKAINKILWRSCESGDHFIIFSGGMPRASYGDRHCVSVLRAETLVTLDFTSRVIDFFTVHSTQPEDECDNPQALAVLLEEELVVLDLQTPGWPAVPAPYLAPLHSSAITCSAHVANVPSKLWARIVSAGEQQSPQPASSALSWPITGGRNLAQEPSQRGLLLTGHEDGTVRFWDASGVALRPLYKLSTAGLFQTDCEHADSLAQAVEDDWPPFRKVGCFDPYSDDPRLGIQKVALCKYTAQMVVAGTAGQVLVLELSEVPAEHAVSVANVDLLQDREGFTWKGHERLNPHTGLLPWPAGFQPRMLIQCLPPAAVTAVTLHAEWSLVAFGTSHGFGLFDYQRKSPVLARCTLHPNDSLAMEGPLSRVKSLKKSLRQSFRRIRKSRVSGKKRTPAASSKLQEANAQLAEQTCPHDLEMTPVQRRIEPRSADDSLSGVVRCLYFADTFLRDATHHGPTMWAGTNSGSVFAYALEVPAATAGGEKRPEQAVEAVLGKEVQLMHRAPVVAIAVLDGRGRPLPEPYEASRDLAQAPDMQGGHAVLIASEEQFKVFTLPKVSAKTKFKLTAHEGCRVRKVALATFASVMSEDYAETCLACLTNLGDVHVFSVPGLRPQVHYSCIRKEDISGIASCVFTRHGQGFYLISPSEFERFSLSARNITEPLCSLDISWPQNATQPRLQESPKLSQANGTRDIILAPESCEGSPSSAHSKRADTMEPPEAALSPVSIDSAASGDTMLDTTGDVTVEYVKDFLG
Assay: co-immunoprecipitation (FLAG IP, western blot with HA and FLAG antibodies, quantified)
Conditions: chain shown with the change; HEK293T cell lysates; n = 3; parent: est. 1.0; read off a plot

B1: HA-PKCζ-wt, Q05513 K225R; K284R; K378R (protein)
chain: MPSRTGPKMEGSGGRVRLKAHYGGDIFITSVDAATTFEELCEEVRDMCRLHQQHPLTLKWVDSEGDPCTVSSQMELEEAFRLARQCRDEGLIIHVFPSTPEQPGLPCPGEDKSIYRRGARRWRKLYRANGHLFQAKRFNRRAYCGQCSERIWGLARQGYRCINCKLLVHKRCHGLVPLTCRKHMDSVMPSQEPPVDDKNEDADLPSEETDGIAYISSSRKHDSIRDDSEDLKPVIDGMDGIKISQGLGLQDFDLIRVIGRGSYAKVLLVRLKKNDQIYAMKVVRKELVHDDEDIDWVQTEKHVFEQASSNPFLVGLHSCFQTTSRLFLVIEYVNGGDLMFHMQRQRKLPEEHARFYAAEICIALNFLHERGIIYRDLRLDNVLLDADGHIKLTDYGMCKEGLGPGDTTSTFCGTPNYIAPEILRGEEYGFSVDWWALGVLMFEMMAGRSPFDIITDNPDMNTEDYLFQVILEKPIRIPRFLSVKASHVLKGFLNKDPKERLGCRPQTGFSDIKSHAFFRSIDWDLLEKKQALPPFQPQITDDYGLDNFDTQFTSEPVQLTPDDEDAIKRIDQSEFEGFEYINPLLLSTEESV
ratio to parent: 2.4
